Source: paper doi:10.1101/2025.10.21.683800 (bioRxiv, 2025)
Like-named read-outs stand apart in the source and are kept apart here.

Experiments:
[1] = biological target: T1, MBP-FLAG-PPP1CC-His (human, UniProt P36873 1-323); experiment: ITC
[2] = biological target: T1, MBP-FLAG-PPP1CC-His; experiment: ITC; remark: listed apart in the source

T1 sequence (P36873 whole entry): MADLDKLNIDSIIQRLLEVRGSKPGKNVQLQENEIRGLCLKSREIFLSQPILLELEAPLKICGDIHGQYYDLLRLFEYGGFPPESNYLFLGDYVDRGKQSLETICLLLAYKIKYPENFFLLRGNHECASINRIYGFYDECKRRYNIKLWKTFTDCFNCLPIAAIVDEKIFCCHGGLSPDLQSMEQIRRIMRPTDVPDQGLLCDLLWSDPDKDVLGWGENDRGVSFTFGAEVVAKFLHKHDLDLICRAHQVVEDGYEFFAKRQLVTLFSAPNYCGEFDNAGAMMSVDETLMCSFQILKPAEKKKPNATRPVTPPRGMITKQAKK

Kd [1]: 3590 nM
Kd [2]: 1130 nM
B1: recombinant PPP1R2 (natural protein)
chain: MAASTASHRPIKGILKNKTSTTSSMVASAEQPRGNVDEELSKKSQKWDEMNILATYHPADKDYGLMKIDEPSTPYHSMMGDDEDACSDTEATEAMAPDILARKLAAAEGLEPKYRIQEQESSGEEDSDLSPEEREKKRQFEMKRKLHYNEGLNIKLARQLISKDLHDDDEDEEMLETADGESMNTEESNQGSTPSDQQQNKLRSS
